Source: the DeepSol protein solubility set

test: soluble on expression in E. coli; label from the status in PepcDB or PDB records

Soluble on expression in E. coli, not soluble:
MGSDKIHHHHHHMRIVFVGTPEFAAEILEHLIKNGFNVVGVVTQPDKPRGRGRKVAPTPVKAVAEKHEVPFIQPESINKKEALEFLRSVRPDVIIVASYGKILGEKVLSLPRLGCYNIHPSLLPKYRGASPIQRVLENGEERTGVTIYKMVKELDAGPIALQKEISVDPFETFDQLEKRLIELSKEMLIEFLEKLKTGNIELKEQDHSRATYAPMIKKEDLIVDFSKDAESVKNKIRAYDSRPGARAFLGNVEVKLFGVTAIDSSGDEPGLINYIDREGAWIGTGDGKVKVRYIQFPGKKKMTFWEAKNGRLIIEGMRFERRYES
MGSDKIHHHHHHMRKHGGDVYAYSGQYENILDFSANTNAFIDTGVLSRYPEVSPGDIEKMILQYTGAKSLRVIIGPGLTHFIYRIPAWMGLRRSLIIEPNFNEYEASLLAYGSRTSSLGLGVLKRNPEIVRSYRPDSIFICSPVNPTGDLVDAGLLRKLSMEMSRMGGILFVDQAFGDFVPEHAEETVRIAEEMGNVIIGRSLTKILSIPSLRLGYILVSDQVFGMIRDREEPWAVCEPALEFVRKADLKALRDTSLKRIGEERSYLMEALENMGFEILGDPHANFIAFRSPFEIDLKKQLLKSGILIRDLSDYADFGKNCYRVAVRGRSENALLIQALRNAIL
MGSDKIHHHHHHMRKLIFIAFMVMSVCGYAQKYEVGTTTAVWKAPAAADFLHAKAIGVKYVEVAFNQCYRGVPVDEVIPRIKEMKAKIDSADIEVWSIHLPFSRTLDISVLDDRLRKENVDFMAEMIELCAMFQPTCLVLHPSSEPIADSIRAQRIANASESIAYLKKYADRIGAQLCIENLPRTCLGNTPEELMRIVGDIPDVKVCFDTNHYTKGTTEHFVAIVGSRIGTIHASDFDLVNECHWLPTQGNIKWGKLMQDLEKTGYKGVFMYEATKDHENNNVRPALERIAETFDKITDDYKTLK
MGSDKIHHHHHHMRLNPERPLLSGSCTQYLDWGLPIAMDAVGPGEARRILDRYGADRVLLVGPPGVGKSTVVRSYAEDSASREGLEFVDLSEARSLEDLDTDSTYAFLHIYAPLVRAEDLAFIARRGEGYDWTLPSRLAYLTRPGVRGLVFIDEITNVALPEVQTILFSMVLDKRVAYNRLSSGVEVVAAGNSPRDSPVSQWPPPPLLDRFRLLIRVKPPDLEEWVSWMNSVGRPWDRRVAAVLKVKPVLMYRPPEDEEDKFPTPRSWSQLAWELAKTGAHGDEAVRIAAMVVGRRAAEEARQFLQPDPASLDLSTFPRLDERERLTLLSVEAGRLASQDVVELCRTLEKVGSYGAHYAVWLLMLSGVDTVEAARSCSYVEDLLSRLSSYLG
MGSDKIHHHHHHMRLNRETIKDRAAWEKIGVRPPYFDLDEVEKNTKEQPKWVHFGGGNIFRGFVAAVLQNLLEEGKEDTGINVIELFDYEVIDKVYKPYDNLSIAVTIKPDGDFEKRIIASVMEALKGDPSHPDWERAKEIFRNPSLQLASLTITEKGYNIEDQAGNLFPQVMEDMKNGPVSPQTSMGKVAALLYERFKAGRLPIALLSLDNFSRNGEKLYSSVKRISEEWVKSGLVEKDFIDYLEKDVAFPWSMIDKIVPGPSEFIKEHLEKLGIEGMEIFVTSKRTHIAPFVNMEWAQYLVIEDSFPNGRPKLEGADRNVFLTDRETVEKAERMKVTTCLNPLHTALAIFGCLLGYKKIADEMKDPLLKKLVEGVGEEGIKVVVDPGIINPREFLNEVINIRLPNPYLPDTPQRIATDTSQKMPIRFGETIKAYHERPDLDPRNLKYIPLVIAGWCRYLMGIDDEGREMQLSPDPLLENLRSYVSKIKFGDPESTDDHLKPILSSQQLFRVNLYEVGLGEKIEELFKKMITGPRAVRKTLEEVVGREDG
MGSDKIHHHHHHMRMPEMMFLQGNEACALGAIKAGCRFFAGYPITPSTEIAEVMARELPKVGGVFVQMEDEIASAAAVVGASLAGVKSMTATSGPGFSLIQEVIGYAIMTETPCVFANVMRLGPSTGLPTKPAQGDIMQTRWGTHGDHAIIALYPSSVAEVYRYIITAFNLAEEYRTPVVFLMDAMLGHMRESFYPPKDEELFIIERLKDTSFGEEDLFVPFSESEYAEPTPFPMAEMGKTKFHVSGLVHDESGFPLSSPDAAEKLIRRLTNKIRLHADEIAFYEEYETEDAEILVVAYGIVARSAMKAVKIARRDRIKVGLFKPITIWPAPVSRFRKLAEKVNTIVIAEMNLGQYAKELISSIDRRSKVIRTINKVNGELIKPEEILDVITETQIEI
MGSDKIHHHHHHMRNSLLVFTLDCQVKIDSKTVDCQTNIDSFLTPNSNLIIVEVEEIKRILLDQESFLNDKLRKERIITRHYNYSITYNNAYLITGPRRAGKSIFTVQLTKGKEILRVDFDDERLSGIKANELNKFLEAGYQIKKKIEVIILDEIQNVKGWELFVSRIREIYPVIVTGSNARLMSSEMATYLTGRHMDFLVFPFSFKEYLRYKDVKVEETTRGIARLKEELRNYLQQGGFPETFKFDKNEYLRNLYSDIITRDVIIRCKTRKDVKGLADFLLENIGKEVSTRRVGNAFNLSHQSVENYFYCLSNAYLFLFVKRFTGKSLERYTLPRKVYVIDTGLFNTYKRLQMGKMIENLVFLELYKRYGQEVYYYSNGNAEVDFIIKDKFAIQVTYDEGGIDDREYKGLVRFSERFKDYKLIIITWDREGKEIRNGKEITLIPLWKFLVKERFAGEMIGKES
MGSDKIHHHHHHMRRDVFIETRNVMDFRQKVRALEDFSGEPGFALVFGQAGRGKTETARHYHAMNGGIFLRVMQGWSQCAFLQELCFQVCGLRPRSSATCKAKIIEALDSMPQTLFVDEADRLHVDRVEDLRDVFDLTSSTVVLIGEQELRGLLSTRRRIWSRVKQVVEFGPVAEEDVAILGDEAAGLDIAPEACSQIVRLADGDFRLVWSFIHQLELTAKTHGIQQINTELVARVSKLVASWRQQ
MGSDKIHHHHHHMRREEMWKLINATIEPIDTETSSSHILSEQDVNESTSGVIFIHTVGVMPVTVNDLIEEGRCARTDLSYADVILASRPVEEERTPVVYLNPDMNDASFYLLENAREIVPADLAKDVLLDRIVRYKRVQRVVDAVIVTDDPHLRRLLERELTKNFETLSLYERAEVFLEQHVATRPYLLVFSSALPRADGLELLLRAKQETIVPFHAIMISMYNRERDHVLAIERGVDGIMTLPLKVEEFRAWVSRLEGVHG
MGSDKIHHHHHHMRVAMWSGPRNLSTAMMYAFGNRPDCEAWDEPFYAAYLAQTGLDHPMRQTVLASQPPHYGAVVERLLATPTQPVQYLKLMTHHMLPDTSLTWATGFANIHLIRHPARVIASYTAKRAEITLDDIGFPQAARLHTALPGPIIDSADIRAAPEAMLRSLCEAIDLPFDPAMLHWPAGPKPFDGAWAPHWYDAVHRSTGFAAAEGHLPEVPDHHRGLLKDALDIYETLHQSRLRP
MGSDKIHHHHHHMRVILAPMQGVLDPFVRELLTEVNDYDLCITEFVRVVDQLLPEKVFYRLCPELKNQGFTSSGTPVRVQLLGQHPKCLAENAIRAIDLGSHGIDLNCGCPSKTVNGSNGGAALLKQPELIYRATQALRRAVPSEFPVSVKVRLGWDDISQAFEIADAVEQGGATEITVHGRTKADGYRADRINWKKISEVRERLSIPVIANGEIWHWQDGQDCLSQTGCQDLMVGRGALNIPNLSHVLKSNAEKMPWYEIQKILQKYANVENEYDSGFYHVARIKQWLRYLNKEYNEANQVFDKIKTCQTAEDLKLRLNEK
MGSDKIHHHHHHMSAISYLHLLMLRQNNSMTRHNQTLFNLPLFNQHQFNPPQLNQVAIDQLQQGQAKRLSLLWLWLQQDETRLAALMVCQKVMQQQGITDWLISAGFIRNLIWDNLHSMTSQPLNDIDVIYWRDNNPSSAEDQAIEALLVKQIALPWSVKNQARMHLRNGDMPYISCADAMSFWPEKQTAIGVKLASIDDLTSAEFQLQVTSVFGLSCLFDLSLSPNPKRDKAIFNHRVSQKGWLIHYSKLLVTE
MGSDKIHHHHHHMSDANVSRLGQANLSGDAKALFLKVFSGEVLTAFQESCVTADKHLVRTITSGKSAQFPILGKISAQYHTPGAEIAGLSVPANEQIITIDDLLISHAFIASIDEAMNHYDVRGPYSTEMGRALSYTYDKHILQLGVLAARASAPVSTEAGGGSVTDSALLTDTTGEALVAALFAAAQKLDEKFIPADERYAYLTPAAYYMLAQNTKLMNSLWGGQGSYAKGELPQVAGISLVKAVHAPFGSNIATVANGGTALTAGTSDKYAVDATSTAALVMHKAAVGTVKLMDLAMESDYDIRRQGTLMVAKYAMGHGILRPAAAVELKTA
MGSDKIHHHHHHMSDLKSLATKFASDHESGKLLVLPTVWDTWSAGLVEEAGFSGLTIGSHPVADATGSSDGENMNFADYMAVVKKITSAVSIPVSVDVESGYGLSPADLIAQILEAGAVGINVEDVVHSEGKRVREAQEHADYIAAARQAADVAGVDVVINGRTDAVKLGADVFEDPMVEAIKRIKLMEQAGARSVYPVGLSTAEQVERLVDAVSVPVNITAHPVDGHGAGDLATLAGLGVRRVTFGPLWQKWLAATSAQQLKGWA
MGSDKIHHHHHHMSEALELLGQDIVARAPGVLGHSVAFGELTIVARAASVIDTLTFLRDDAACRFHQLIDLTGVDYPERAARFDVVYHLLSLVKNHRIRLKVSTDEDTPVPSVTPVFPVADWFEREAFDMYGIFFDGHPDLRRILTDYGFHGHPLRKDFPMTGYVEVRYDDELKRVVYEPVKITEFRAFDFLSPWEGAKYALPGDEKAQ
MGSDKIHHHHHHMSEQKEDLFKPVGEAAAEVEDESIAEQNKANDGVKLTGAQDAMGHPVQEIESLCMNCGKNGTTRLLLTSIPYFREIIIMSFDCPHCGFKNCEIQPASQIQEKGSRYVLKVECREDFNRQVIKSETATCKFVELDIEIPAKRGQLTTVEGLLSEMIDDLSQDQEMRKSIDEALYKKIDDFIQKVKSYINCEPNTIPITFILDDPAGNSWIEYKPGEPQHKWSHTQYVRTDEQNVQVGIITRDQLEQRRQEQLKQLANRERNPSESVKVGSANPQFLSDATDIENFNNEVQTFRASCPSCTQECETHMKPVNIPHFKEVIIMSTVCDHCGYKSNEVKTGGAIPDKGRRITLYCDDAADLSRDILKSETCSMVIPELHLDIQEGTLGGRFTTLEGLLRQVYEELESRIFTQTSDSMDEATKARWVEFFAKLKEAIAGKVKFTVIMEDPLAGSYIQNVYAPDPDPNMTIEDYERTKEQNEDLGLSDIKVE
MGSDKIHHHHHHMSFLIGPFLKSFIDNVIKDTVIPVKGSVVYCGLFGYAEHSGIYIGDNKIVHLDGSGIIEVVSPQQFIERLSGLNPAMSIYVSCNGSSATGTNTIAKRAKKMVGKSRKYHVILDNCHQFTSGCITGNFDNADNFLWMLKSTAGNKLSTNKWRVWERKYSS
MGSDKIHHHHHHMSFRSGVATFAGKSSYWFLHTFLHGGSSLPGKITLKLDPNILRTLGAKYDVIVITGTNGKTLTTALTVSVLHEKYPAILTNPTGSNMEQGIVTTFLNAKNPKTGRPLAVLEVDEANVIKVTHYIEPKAFVFTNIFRDQMDRYGEIYTTYQKILDGVALAPKATIIANGDSPIFNSKELPNPIQYYGFDNEPDTDMKAKPNTDGVLCPVCQHILHYHSLTYSNQGKYFCPNCGFARPELTYRLTALGEQTPTSSHFDVDGHPFTIQVGGTYNIYNALAAYAVGRFMGVAPEQIAHAFTANERVFGRQEVINVGDKRVTIILVKNPVGLDQVLHMIGTDKEQFSFVALLNANYADGIDTSWIWDGDFEQLTALDIPTFITGGERYKDITFRLKVAGVPDDQHIVEPDLEKVVDRITDLPTERVYVLATYTAMLQLRKILATKGYIKEGFGA
MGSDKIHHHHHHMSFSLRNYQVELILDIKKSMLAGHRKIMVQSPPRSGKTVCMAHIAKNATNKQKTVLFFSHRKEINEQVFETFSRAGVDMGLVYIGTVGSIVRKLGKLPVPTLVLVDEAHHIKASQYQQILKYYHQAVQLFFTGTPIRLDGSGFDDMADDLVVGKSILWLQEHGNISEFDYYSINLLDQAKLRKRQGEYTNQSIDDSFDFSNSTAIT
